This is an account of results in US20200299408A1.

B1: hu38E4.v1 Fab (Fab, V domains shown)
VH: EVQLVQSGAEVKKPGASVKVSCKASGFTFTSYYIHWVRQAPGQGLEWIGWIYPENDNTKYNEKFKDRVTITADTSTSTAYLELSSLRSEDTAVYYCARDGYSRYYFDYWGQGTLVTVSS
VL: DIVMTQSPDSLAVSLGERATINCKSSQSLLNSRTRKNYLAWYQQKPGQSPKLLIYWTSTRKSGVPDRFSGSGSGTDFTLTISSLQAEDVAVYYCKQSFILRTFGQGTKVEIK
B2: SP34v52 Fab (Fab, V domains shown)
VH: EVQLVESGGGLVQPGGSLRLSCAASGFTFNTYAMNWVRQAPGKGLEWVARIRSKYNNYATYYADSVKDRFTISRDDSKNTLYLQMNSLRAEDTAVYYCVRHGNFGNSYVSWFAYWGQGTLVTVSS
VL: EAVVTQEPSLTVSPGGTVTLTCRSSTGAVTTSNYANWVQQKPGQAPRGLIGGTNKRAPWTPARFSGSLLGGKAALTLSGAQPEDEAEYYCALWYSNLWVFGGGTKLTVL
B3: humanized 30A1: VH3 graft + A24V / K4 graft (antibody, V domains shown)
VH: EVQLVESGGGLVQPGGSLRLSCAVSGFSLTNYAIHWVRQAPGKGLEWVGVIWAGGNTKYNSALMSRFTISRDNSKNTLYLQMNSLRAEDTAVYYCAREDSSGYVALDYWGQGTLVTVSS
VL: DIVMTQSPDSLAVSLGERATINCKSSQSLLSGRTRKNYLAWYQQKPGQPPKLLIYWASTRESGVPDRFSGSGSGTDFTLTISSLQAEDVAVYYCKQSYYLLTFGQGTKVEIK
B4: murine 30A1 (antibody, V domains shown)
VH: QVQLKESGPGLVAPSQSLSITCTVSGFSLTNYAIHWVRQPPGKGLDWLGVIWAGGNTKYNSALMSRLSFSKDNSKSQVFLEINSLQTDDTAMYYCAREDSSGYVALDYWGQGTSVTVSS
VL: NIVMTQSPSSLAVSAGEKVTMSCKSSQSLLSGRTRKNYLAWYQQKPGQSPKLLIYWASTRESGVPDRFTGSGSGTDFTLTISSVQAEDLAVYYCKQSYYLLTFGAGTKLELK
B5: murine 13A3 (antibody, V domains shown)
VH: EVQLQQSGPELVKPGASVRISCKASGYTFTSYYIHWMKQRPGQGLEWIGWIYPGNVNTKYNEKFKGKATLTADNSSSTANMQLSSLTSEDSAVYFCARNHDYYFDYWGQGTTLTVSS
VL: DIVLTQSPSSLAVSAGEKVTMSCKSSQSLLNSRTRKNYLAWYQQKPGQSPKLLIYWASTRESGVPDRFTGSGSGTDFTLTISSVQAEDLAVYYCKQSYILRTFGGGTKLEIK
B6: muSP34 (antibody, V domains shown)
VH: EVQLVESGGGLVQPKGSLKLSCAASGFTFNTYAMNWVRQAPGKGLEWVARIRSKYNNYATYYADSVKDRFTISRDDSQSILYLQMNNLKTEDTAMYYCVRHGNFGNSYVSWFAYWGQGTLVTVSS
VL: QAVVTQESALTTSPGETVTLTCRSSTGAVTTSNYANWVQEKPDHLFTGLIGGTNKRAPGVPARFSGSLIGDKAALTITGAQTEDEAIYFCALWYSNLWVFGGGTKLTVL
B7: 18F12 (antibody, V domains shown)
VH: QVQLQQSGPELVKPGASVKISCKASGYSFTNYYMHWVKQRPGQGLEWIGWISPGSGSIKYNEKFKGKATLTADTSSSTAYMQLSSLTSEDSAVYYCARDGYSLYFFDFWGQGTTLTVSS
VL: DIVMTQSPSSLAVSAGEKVTMTCKSSQSLLNSRTRKNYLAWYQQKPGQSPKLLIYWASTRESGVPDRFTGSGSGTDFTLTISSVQAEDLAVYYCKQSFILRTFGGGTKLELK
B8: 27H5-1 (antibody, V domains shown)
VH: QVQLQQSGPELVKPGTSVKISCKTSGYSFINYYTHWVKQRPGQGLEWIGWIYPGNGNIKYNEKFMGKATLTADTSSTTAHMHLSSLVSEDSAVYYCARDSYGSYYFDYWGQGTTLTVSS
VL: DIVMTQSPSSLAVSVGEKVTMSCKSSQSLLNSRTRKNYLAWYQQKPGQSPKLLIYWASTRESGVPVRFTGSGSGTDFTLTISSVQAEDLAVYYCTQSFILRTFGGGTKLEIK
B9: 14C7 (antibody, V domains shown)
VH: EVQLQQSGPELVKPGTSVKISCKASGFSFTNYYIHWMKQRPGQGLEWIGWIYPGSDNTKFNDKFKGKATLTADTSSTTAYMQLSSLTSEDSAVYYCARDSITNYYFDYWGQGTTLTVSS
VL: DVVMTQTPSSLAVSTGEKVTMTCKSSQSLLNIRTRKNCLAWYQQKPGQSPKLLIFWASTRYSGVPDRFTGSGSGTDFTLTIRSVQPEDLAVYYCTQSYTLRTFGGGTKLEIK
B10: 38E4v1 (bispecific antibody, part only; not given: anti-HER2 arm and constant regions, V domains shown, not shown: another chain or arm of the molecule; a dimerising Fc or GST)
VH: EVQLVQSGAEVKKPGASVKVSCKASGFTFTSYYIHWVRQAPGQGLEWIGWIYPENDNTKYNEKFKDRVTITADTSTSTAYLELSSLRSEDTAVYYCARDGYSRYYFDYWGQGTLVTVSS
VL: DIVMTQSPDSLAVSLGERATINCKSSQSLLNSRTRKNYLAWYQQKPGQSPKLLIYWTSTRKSGVPDRFSGSGSGTDFTLTISSLQAEDVAVYYCKQSFILRTFGQGTKVEIK

Chain of hCD3ε1-27-Fc (fusion chain, as listed by the source): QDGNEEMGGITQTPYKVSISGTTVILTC

One assay addresses hCD3ε1-27-Fc. The experiment in a line: monovalent binding affinity (p-1384), method not stated on the sheet.
With B1, the Kd came to 1 nM.
In turn, B2 came in with a Kd of 11 nM.

The target of a further assay is commercial CD3ε. The experiment in a line: binding affinity on commercial CD3ε (Creative Biomart CD3E-2194H); method not given.
Chain of commercial CD3ε (P07766 22-126): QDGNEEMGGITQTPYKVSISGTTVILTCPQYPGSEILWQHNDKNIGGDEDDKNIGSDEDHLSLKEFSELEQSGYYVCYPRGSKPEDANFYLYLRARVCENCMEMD
With B3, the Kd is 1.7 nM.
In turn, B4 registered a Kd of 0.4 nM.
For the molecule B5, the Kd worked out at 0.7 nM.

The target in the next assay is CD3 antigen of Figures 3B and 3C (not named). The experiment in a line: kinetic table of IgGs; method and antigen not stated.
The molecule B6 showed a dissociation constant (Kd) of 0.249 nM, a koff of 4e-05 s⁻¹ and a kon of 161000 M⁻¹ s⁻¹.
The molecule B7 yielded a Kd of 0.119 nM, a koff of 1.59e-05 s⁻¹ and a kon of 134000 M⁻¹ s⁻¹.
For the molecule B8, the Kd stood at 0.492 nM, the koff was found to be 0.000115 s⁻¹ and the kon stood at 234000 M⁻¹ s⁻¹.
Taken in the same sequence, the figures for B9 were 0.228 nM, 3.79e-05 s⁻¹ and 166000 M⁻¹ s⁻¹.

For the next assay, the target named is human CD3 on T cells (human) (UniProt P07766). Kind of assay: Biacore, monovalent KD of the CD3 arm; form of the CD3 antigen not stated on the sheet [panel B].
Chain of human CD3 on T cells (human) (P07766 22-207 limits assumed): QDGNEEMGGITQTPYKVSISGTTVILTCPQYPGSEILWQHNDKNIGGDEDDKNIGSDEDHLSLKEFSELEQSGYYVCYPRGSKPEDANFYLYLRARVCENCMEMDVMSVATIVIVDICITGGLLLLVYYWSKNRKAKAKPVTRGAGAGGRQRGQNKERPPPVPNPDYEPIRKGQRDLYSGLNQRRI
B10 gave a Kd of 1.3 nM. In other words, the single-digit nanomolar range.
